# According to patent US10278923B2, “Oral dosing of GLP-1 compounds” (Novo Nordisk A/S, priority 2013, dated 2019):
# Read-outs that look alike come from different tables or passages of the source.
# Experiments:
# [1] = dog, in vivo
# Experimental: The other monoclonal antibody, specific for an N-terminal epitope, was biotinylated. […] Illumination of the complex releases singlet oxygen atoms from the donor beads which channels into the acceptor beads and trigger chemiluminescence which was measured in the EnVision plate reader.
# The LC-MS system consisted of Waters Acquity UPLC system (Waters) consisting of an autosampler (Model Acq-SM), pump (Model Acq-BSM), column oven (Model Acq-SM), detector (Model Acq-TUV) and LTQ Orbitrap XL (Thermo Fisher). RP-HPLC separation was achieved using a linear gradient of acetonitrile in 0.1% formic acid using CSH C18 column (Waters, 1×150 mm) with a flow rate of 0.1 ml/min at 45° C.
# A pharmacokinetic study was carried out to determine plasma half-life of the GLP-1 peptides after p.o. administration to Beagle dogs.
# Dogs were administered p.o. GLP-1 peptide 1 in a SNAC formulation. Blood samples were drawn at predefined time points after dosing, and samples were analysed for concentration of the GLP-1 peptide. […] The variability in plasma concentration of the GLP-1 peptide was determined as % CV for AUC. […]
# Blood samples were drawn at predefined time points after dosing, and samples were analysed for concentration of the GLP-1 peptide. […] The variability in plasma concentration of the GLP-1 peptide was determined as % CV for AUC. […]
# [2] = Pharmacokinetic study: variability in plasma concentration (% CV) after p.o. administration of SNAC tablet to humans; format: in vivo; settings: for % CV AUC / % CV Cmax: p.o. tablet with 300 mg SNAC
# Experimental: The variability in plasma concentration was determined as % CV for both Cmax and AUC.
# [3] = 10 mg, single dose, healthy subjects
# [4] = 10 mg/day for 70 days, healthy subjects, Day 70
# [5] = 20 mg/day for 70 days, healthy subjects, Day 69
# [6] = 40 mg/day for 70 days, healthy subjects, Day 69
# [7] = 40 mg/day for 70 days, subjects with type 2 diabetes, Day 69
substance,measurement,setting,value
"N-epsilon26-[2-(2-{2-[2-(2-{2-[(S)-4-Carboxy-4-(17-carboxyheptadecanoyl-amino)butyrylamino]ethoxy}ethoxy)acetylamino]ethoxy}ethoxy)acetyl][Aib8,Arg34]GLP-1-(7-37) [GLP-1 peptide 1]","variability in plasma exposure, daily dosing compared to single dose",[1],significantly reduced
same,% CV AUC,"[1]; po, 300 mg",67%
same,"variability in plasma exposure, daily dosing compared to single dose","[2]; humans, 10, 20 or 40 mg daily for 70 days vs single dose of 10 mg",significantly reduced
same,% CV AUC,[2]; [3],105%
same,% CV Cmax,[2]; [3],113%
same,% CV AUC,[2]; [4],73% (Day 70)
same,% CV Cmax,[2]; [4],74% (Day 70)
same,% CV AUC,[2]; [5],67% (Day 69)
same,% CV Cmax,[2]; [5],62% (Day 69)
same,% CV AUC,[2]; [6],78% (Day 69)
same,% CV Cmax,[2]; [6],80% (Day 69)
same,% CV AUC,[2]; [7],55% (Day 69)
same,% CV Cmax,[2]; [7],54% (Day 69)
